For two substances, degree of factor XIIIa-mediated incorporation after 4 hours (spectrophotometric) (moles per mole) and apparent Michaelis constant (Km) for the reaction of incorporation by factor XIIIa results are on record in US20100204147A1, “Methods For Delivering Thymosin Beta 4, Analogues, Isoforms and Other Derivatives” (REGENERX BIOPHARMACEUTICALS, INC., priority 2003, published 2010).

Common to all, as to test: cell-based or functional assay
The target of experiment [1] is Fibrin (made from human fibrinogen with bovine thrombin) (human) (UniProt P02671).
For experiment [2], the target named is Human fibrinogen depleted of plasminogen, fibronectin and von Willebrand factor (human) (UniProt P02671).
Experiment [3] addresses Recombinant γ-module comprising residues 148-411 of the human fibrinogen γ chain (human) (UniProt P02679).

As for “FITC-labeled thymosin β4 (from UniProt P62328 2-44) (peptide)”, the degree of factor XIIIa-mediated incorporation after 4 hours (spectrophotometric) (moles per mole) in experiment [1] was 0.4; in experiment [2], 0.2.
Take “Synthetic thymosin β4 (from UniProt P62328 2-44) (peptide)”: the apparent Michaelis constant (Km) for the reaction of incorporation by factor XIIIa in experiment [3] is 183 µM.
